In series [1] the target is H2A-containing mono-nucleosome (recombinant Xenopus laevis histone octamer on 601 DNA with 70 bp of extranucleosomal DNA) (Xenopus laevis) (UniProt P06897). Put plainly: native gel or EMSA; 70N0 nucleosomes with photoreactive DNA bound with saturating amounts of INO80 at 30 °C; extent of binding assessed on 4% native polyacrylamide gels.
The subject of series [2] is INO80 complex (Ino80-FLAG) (Saccharomyces cerevisiae S288C). Kind of series: EMSA. The following applies: saturating INO80, 30 C, EMSA: 10 mM Na-HEPES pH 7.8, 4 mM MgCl2, 60 mM NaCl, 0.2 mM EGTA, 0.04 mM EDTA, 8% glycerol, 0.1 ug/uL BSA, 30 min, footprinting and crosslinking at 30 C.
Series [3] has as its system Ino80 (catalytic subunit within INO80 complex) (Saccharomyces cerevisiae S288C). Put plainly: site-specific DNA photocrosslinking. The following applies: 10 A tether, in INO80 complex, AB-dUMP (10 A) or ABG2-dUMP (18.6 A) at nt -58 from dyad, EMSA: 10 mM Na-HEPES pH 7.8, 4 mM MgCl2, 60 mM NaCl, 0.2 mM EGTA, 0.04 mM EDTA, 8% glycerol, 0.1 ug/uL BSA, 30 C, 30 min, footprinting and crosslinking at 30 C.

On to “INO80 complex (from UniProt P53115 1-1489; P80428 1-489; P40154 1-320)”, for which, in series [1], the percent of nucleosomes bound was over 90%.

With “70N0 nucleosome, photoreactive dUMP at nt -58”, the binding signal (% nucleosomes bound) in series [2] (AB-dUMP (10 A) or ABG2-dUMP (18.6 A) at nt -58 from dyad) was over 90. The binding signal (fold crosslinking vs no nucleotide) in series [3] (ADP) and in series [3] (ATPgS) was 4 throughout.

In the case of “70N0 nucleosome, photoreactive dUMP at nt -33/-30”, in series [2] (photoreactive dUMP at nt -30 to -33 from dyad), the binding signal (% nucleosomes bound) is over 90.
